In a protein production outcome set (Wang et al. 2014) one finds protein production data, which are given here for twelve sequences.

The nature of this series: label from the status in PepcDB records.

On to “AADHVKGDGKLTSKKISVADYNEIKVDGVIDFNYEQSDDPSTVEVTVDQNLHPYVNIEVKDRVLTIAFKGAKVDHFTKFIVKTNSKWLAAAKVSGNANFMVNSPLTGDETVIKANANSLVQLKETVTVGKLDLNVSGSANMVVNHLEADKIECDIDGSGSITIKKGNAKEGDYSIVSSGDIHAFGLAVPQLSCKVTGNGLAEVHATDNLKANVVGKGNIRYKGPTAVQQRIIGKGTVEEVKE”, for which the protein production entry is listed as “not failed”.
In the case of “ADGILGVDKLGHFIFANESATKITGYSEEQILSSDLISLFAGDNKENLTFEDTEVYKAIQSKEVIRISNEYVLMSGARELPLEYSISPVEDDE”, the protein production result is “failed”.
Regarding “ADNNKWKPLFGKNLENANYNPEVWSETDGVLGAVKDESIWTKDEYENFELDLDFKTDVGTNSGVVVYCTDTKDWIPNSVEIQIADDHCEKWGNGKPYEKCGAIYGHLGAVQDKVVKKPGEWNHMRIKCAGQHIMVILNGKKVTEMDMSKWTSGTKNPDGSDIPSWLPKPFAELPTKGFIGLQGKHGDSLIWFRNIKIRSL”, the protein production result was “not failed”.
With “ADPFASITHLVDSAMVNKTDSIDREKTSDEPKPIEADESFDDFIYNFASDDALQRQRVVFPLPYYNGERASKIDRKYWKHDDLFAKQSYYTLLFDREEDMDLVGDTSLTSVQVEWIFVKKRMVKKYYFERIKGAWMLEAINLRPIEENENEDFVEFFGHFATDSIFQSRRIRQPLVFVTTDPDDDFSILETTLDLNQWFAFKPALPADKLSNINYGQQNDDNASHKILALKGIGNGFSNILYFQRKDSGWELYKFEDTSI”, the protein production entry is “not failed”.
The entry for “ADVSATVSDMGSLLTAVTLAGVLDYYSVGTKVIKAPKKMVEQQILMTLQTMASLVESSGVDGLVKALNPELLSKAASSMHLLDQQKDLDAALEILTHL” is “not failed”; for “AENNMVRLSRIIIDPERLEEYNAYLKEEIEVSMRLEPGVLVLYAVAEKERPNHVTILEIYADEAAYKSHIATPHFKKYKEGTLDMVQMLELIDATPLIPGLKMK” it is “not failed”.
The entry for “AGHRGQCVGRHREVVAIDNSKATNPHAADSALAGFSSVVWVAGGQLKGAEIDELIVRHAGRIKAVALLGVDRDVIEDSVRTHIPGIPVLSVSETDPRRAMDEAVAWSVSQAEAGDAIVLAPAAASLDMYTGMGQRGDMFATAIAQHLHD” is “failed”; for “AGNETVTEGFKEGQVGSSAMPHKMNARSCERVGGLQVILRGYLTMVADLSGQQWNEGDVFCSVIRRVALPDAFFALDGMYETFLTVLAEFGAFPAMIDRELERYLPFLATTRILMAAVRVGVGRETAHEVIKENAVAVALNMRENGGEQDLIDRLAADERLPMTREQLDEALADRHAFIGAAESQVARVVDRVNDLVRRYPAAAQYTPGDIL” it is “failed”.
To “AGQVVHTETTEVVLTADPVTGFGIQLQGSVFATETLSSPPLISYIEADSPAERCGVLQIGDRVMAINGIPTEDSTFEEANQLLRDSSITSKVTLEIEFDVAESVIPSSG” belongs “not failed”; to “AGSMEDIPVEEAVLTGVATDNSEAKITVLGIPDSPGSASAVFRALADAEINIDTVLQNISSLEDNRTDITFTCPRADGPHAMELLRNLQAKNDWQNVLYDDQIGKVSLVGAGMKSHPGVTAEFCEALRDAGVNIELISTSEIRISVLIRESDVDVAARAIHEKFELGGETEAIVYAGTGR”, “failed”.
Consider “AHHDEVLDIPKGVEVYEIEGPFFFGIANRFEEIMNTLGDHPDVRIIRMRHVPFMDSTGMHNLENLIKMSRKEGVSIVLSGVRKDVHEELATAGIVELLGEENVCADIQAALRQAQAIAQGA”, for which the protein production entry is “failed”.
“AIAAAPIESLLNEICESEDPIEELKSLRTAVLATPVSGLRPAVSGARLEIIFSLLNTNDKEQIEVCVEILSRVLQALEPVQLAQNYRTALQSGLNHPDDSVKVLTLTQIGRVAGHTEGVTQMLNNVEILHDVIQCISVERIAVAKEAIAALSKLSNTKAGLDALFRSDLLNKLKDVMLTSDIIRYRVYELIVEVSTVSPVSLGYCANSGLISQMLEELTGDDVLVRATAIEMVTNLAQSQHGRQYLAQQGIMDKISSVQKIFGAHNYLKLKTYLNEGSYYVTAVSAVTTEGAD”: the protein production result is reported as “failed”.
